Source: PMC5895705

Target: Glucose-6-phosphate dehydrogenase aggregates formed at 50 °C (UniProt P11411)
Assay: co-sedimentation; as a1 but ClpB homo- or heterohexamers (5 μM) with G6PDH50 aggregates in the absence of DnaK

Chain of Glucose-6-phosphate dehydrogenase aggregates formed at 50 °C (P11411 whole entry): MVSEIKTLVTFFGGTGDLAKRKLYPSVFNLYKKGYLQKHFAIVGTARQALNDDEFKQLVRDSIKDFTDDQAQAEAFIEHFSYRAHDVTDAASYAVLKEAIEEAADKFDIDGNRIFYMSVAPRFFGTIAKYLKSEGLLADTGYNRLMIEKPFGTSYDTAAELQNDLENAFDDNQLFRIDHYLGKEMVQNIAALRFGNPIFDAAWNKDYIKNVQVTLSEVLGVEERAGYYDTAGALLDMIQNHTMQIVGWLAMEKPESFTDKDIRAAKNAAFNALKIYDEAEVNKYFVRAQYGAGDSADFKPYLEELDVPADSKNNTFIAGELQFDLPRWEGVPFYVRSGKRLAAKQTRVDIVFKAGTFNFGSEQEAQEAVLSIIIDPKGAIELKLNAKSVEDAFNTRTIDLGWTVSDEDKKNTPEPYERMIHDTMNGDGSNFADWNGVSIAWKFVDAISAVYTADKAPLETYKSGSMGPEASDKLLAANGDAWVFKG

## ClpB_(E279A/E678A) (from UniProt P63284 1-857) (natural protein)
  fold binding relative to wt ClpB (in the absence of DnaK): 4 fold
